{"source": "paper PMC4963475", "about": "(2016)", "key": {"[1]": {"biological_target": "T1, BubR1/Bub3 complex (3×FLAG–BubR1 with untagged Bub3) (UniProt O60566 1-1050; O43684 1-328)", "T1 sequence (O60566 whole entry, chain 1 of 2)": "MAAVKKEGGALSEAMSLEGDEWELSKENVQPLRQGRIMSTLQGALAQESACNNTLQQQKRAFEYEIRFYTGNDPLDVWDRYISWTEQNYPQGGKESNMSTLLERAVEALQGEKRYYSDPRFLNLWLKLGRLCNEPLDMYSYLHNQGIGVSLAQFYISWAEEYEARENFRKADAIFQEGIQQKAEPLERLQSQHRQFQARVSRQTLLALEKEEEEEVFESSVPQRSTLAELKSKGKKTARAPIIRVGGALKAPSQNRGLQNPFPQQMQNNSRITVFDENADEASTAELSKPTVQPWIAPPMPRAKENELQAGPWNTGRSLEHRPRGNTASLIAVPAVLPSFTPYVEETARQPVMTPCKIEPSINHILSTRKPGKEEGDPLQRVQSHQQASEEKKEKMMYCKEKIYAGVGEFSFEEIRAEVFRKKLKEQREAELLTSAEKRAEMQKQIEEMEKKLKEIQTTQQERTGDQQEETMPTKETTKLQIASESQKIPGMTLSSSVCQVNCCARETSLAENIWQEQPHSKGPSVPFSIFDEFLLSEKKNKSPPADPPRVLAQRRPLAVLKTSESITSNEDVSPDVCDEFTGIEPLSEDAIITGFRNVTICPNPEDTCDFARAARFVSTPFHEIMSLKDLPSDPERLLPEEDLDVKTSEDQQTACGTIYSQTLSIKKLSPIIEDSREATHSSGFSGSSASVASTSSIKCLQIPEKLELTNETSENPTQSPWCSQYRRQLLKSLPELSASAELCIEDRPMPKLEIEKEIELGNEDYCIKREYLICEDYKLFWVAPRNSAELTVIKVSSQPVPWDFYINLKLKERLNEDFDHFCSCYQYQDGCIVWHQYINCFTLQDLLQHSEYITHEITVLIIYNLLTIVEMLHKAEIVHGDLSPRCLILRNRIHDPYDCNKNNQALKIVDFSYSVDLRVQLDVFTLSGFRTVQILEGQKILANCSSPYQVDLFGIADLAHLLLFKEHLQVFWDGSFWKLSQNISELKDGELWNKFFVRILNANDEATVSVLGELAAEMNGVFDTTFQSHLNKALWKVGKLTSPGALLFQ", "T1 sequence (O43684 whole entry, chain 2 of 2)": "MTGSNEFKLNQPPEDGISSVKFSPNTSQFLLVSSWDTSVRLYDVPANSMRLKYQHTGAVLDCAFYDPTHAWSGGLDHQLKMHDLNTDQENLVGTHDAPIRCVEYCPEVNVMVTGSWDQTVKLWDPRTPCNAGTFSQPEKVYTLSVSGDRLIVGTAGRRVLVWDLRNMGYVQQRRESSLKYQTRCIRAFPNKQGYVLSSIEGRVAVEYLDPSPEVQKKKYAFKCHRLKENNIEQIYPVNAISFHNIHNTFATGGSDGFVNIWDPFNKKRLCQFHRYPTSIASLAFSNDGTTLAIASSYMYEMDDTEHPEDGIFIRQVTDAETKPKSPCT", "assay": "MST"}, "[2]": {"biological_target": "Bub1(1–553)/Bub3 complex (3×FLAG–Bub1(1–553) with untagged Bub3) (UniProt O43683 1-553; O43684 1-328)", "sequence (O43683 1-553, chain 1 of 2)": "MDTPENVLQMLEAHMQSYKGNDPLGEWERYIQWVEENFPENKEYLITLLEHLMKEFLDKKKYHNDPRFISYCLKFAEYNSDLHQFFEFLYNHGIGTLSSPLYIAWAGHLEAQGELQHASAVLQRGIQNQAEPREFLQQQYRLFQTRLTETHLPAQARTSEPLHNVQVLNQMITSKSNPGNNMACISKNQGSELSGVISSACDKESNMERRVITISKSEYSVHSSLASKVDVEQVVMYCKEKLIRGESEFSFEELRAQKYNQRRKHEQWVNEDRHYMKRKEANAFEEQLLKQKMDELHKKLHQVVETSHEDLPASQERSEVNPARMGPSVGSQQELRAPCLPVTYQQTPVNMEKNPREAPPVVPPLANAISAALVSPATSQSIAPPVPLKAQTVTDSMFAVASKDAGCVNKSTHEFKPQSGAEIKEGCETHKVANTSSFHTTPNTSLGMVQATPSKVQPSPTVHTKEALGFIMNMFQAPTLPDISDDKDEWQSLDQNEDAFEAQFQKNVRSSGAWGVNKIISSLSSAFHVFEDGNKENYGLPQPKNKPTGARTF", "sequence (O43684 whole entry, chain 2 of 2)": "as the sequence (O43684 whole entry, chain 2 of 2) above", "assay": "MST"}, "[3]": {"biological_target": "T1, BubR1/Bub3 complex (3×FLAG–BubR1 with …)", "assay": "MST; 0 mM NaCl"}, "[4]": {"biological_target": "T1, BubR1/Bub3 complex (3×FLAG–BubR1 with …)", "assay": "MST; 50 mM NaCl"}, "[5]": {"biological_target": "T1, BubR1/Bub3 complex (3×FLAG–BubR1 with …)", "assay": "MST; 150 mM NaCl"}, "[6]": {"biological_target": "T1, BubR1/Bub3 complex (3×FLAG–BubR1 with …)", "assay": "MST; 200 mM NaCl"}}, "note": "Non-standard residues stand in square brackets, D forms with d. No end group written: not given here. pT = C[C@@H](OP(=O)(O)O)[C@H](N)C(=O)O; Nle = CCCC[C@H](N)C(=O)O", "data": [{"binder": "EDDKNDMDITKSYTIEIN (N-terminal Btn-PEG2-C-PEG2 (biotin, PEG2, cysteine, PEG2); Nle (norleucine) at position 7 of the letters, written here as M; C-terminal amide)", "note": "[MELT12 peptide (unphosphorylated), Btn-PEG2-C-PEG2-EDDKND-Nle-DI-T-KSYTIEIN-amide]", "values": [{"measurement": "Kd", "setting": "[1]", "result": "> 195000", "unit": "nM"}, {"measurement": "Kd", "setting": "[2]", "result": "> 379000", "unit": "nM"}]}, {"binder": "ENHKND[Nle]DI[pT]QSC[Nle]VEIDY-NH2 (N-terminus assumed; SMILES CCCC[C@H](NC(=O)[C@H](CC(=O)O)NC(=O)[C@H](CC(N)=O)NC(=O)[C@H](CCCCN)NC(=O)[C@H](Cc1c[nH]cn1)NC(=O)[C@H](CC(N)=O)NC(=O)[C@@H](N)CCC(=O)O)C(=O)N[C@@H](CC(=O)O)C(=O)N[C@H](C(=O)N[C@H](C(=O)N[C@@H](CCC(N)=O)C(=O)N[C@@H](CO)C(=O)N[C@@H](CS)C(=O)N[C@@H](CCCC)C(=O)N[C@H](C(=O)N[C@@H](CCC(=O)O)C(=O)N[C@H](C(=O)N[C@@H](CC(=O)O)C(=O)N[C@@H](Cc1ccc(O)cc1)C(N)=O)[C@@H](C)CC)C(C)C)[C@@H](C)OP(=O)(O)O)[C@@H](C)CC)", "note": "[MELT16p peptide, ENHKND-NIe-DI-Tp-QSC-NIe-VEIDY-amide]", "values": [{"measurement": "Kd", "setting": "[1]", "result": 286, "unit": "nM"}, {"measurement": "Kd", "setting": "[2]", "result": 757, "unit": "nM"}]}, {"binder": "EDDKNDMDITKSYTIEIN (N-terminal Btn-PEG2-C-PEG2 (biotin, PEG2, cysteine, PEG2); Nle (norleucine) at position 7 of the letters, written here as M; phosphothreonine (Tp) at position 10 of the letters (MDIT); C-terminal amide)", "note": "[MELT12p peptide (MDIT phosphorylated), Btn-PEG2-C-PEG2-EDDKND-Nle-DI-Tp-KSYTIEIN-amide]", "values": [{"measurement": "Kd", "setting": "[1]", "result": 258, "unit": "nM"}, {"measurement": "Kd", "setting": "[2]", "result": 579, "unit": "nM"}, {"measurement": "Kd", "setting": "[3]", "result": 82, "unit": "nM"}, {"measurement": "Kd", "setting": "[4]", "result": 259, "unit": "nM"}, {"measurement": "Kd", "setting": "[5]", "result": 379, "unit": "nM"}, {"measurement": "Kd", "setting": "[6]", "result": 936, "unit": "nM"}]}]}
